For experiment [1], the target named is human polyclonal IgG (Gammanorm) (human). Description: column Qb10 retention after six 4 h cycles in 0.5 M NaOH, ratio to Zvar4 reference.
The target is the same in experiment [2]. Description: column Qb10 after six 4 h cycles in 0.5 M NaOH, ligand on agarose beads (ligand content 10.8 mg/ml).
Experiment [3] shares this target. Description: column dynamic binding capacity at 10% breakthrough, ligand on agarose beads (ligand content 10.8 mg/ml), Gammanorm 2 mg/ml, 6 min residence time.
Experiment [4] shares this target. Description: column Qb10 after six 4 h cycles in 0.5 M NaOH relative to initial, ligand on agarose beads (ligand content 10.8 mg/ml).
For experiment [5] the target is unchanged. Description: column Qb10 after six 4 h cycles in 0.5 M NaOH relative to initial, ligand on agarose beads (ligand content 9.7 mg/ml).
For experiment [6] the target is unchanged. Description: column Qb10 after six 4 h cycles in 0.5 M NaOH, ligand on agarose beads (ligand content 9.7 mg/ml).
Experiment [7] shares this target. Description: column dynamic binding capacity at 10% breakthrough, ligand on agarose beads (ligand content 9.7 mg/ml), Gammanorm 2 mg/ml, 6 min residence time.
The target is the same in experiment [8]. Description: SPR (Biacore), remaining IgG binding capacity after 96-100 cycles in 0.5 M NaOH, ratio to Zvar1 reference.
For experiment [9] the target is unchanged. Description: SPR (Biacore), ligand on CM5 chip, 1 mg/ml human polyclonal IgG; remaining IgG binding signal after 96-100 10-min cycles in 0.5 M NaOH. On the technique in general: SPR reads the build-up and loss of mass on a sensor chip optically.

Regarding “Zvar(Q9A, N11K, H18K, D37E, A42R)4 (designed binder)”, the Capacity retention relative to ref. after 4 h cycles in experiment [1] amounted to 1.21. Also, the Remaining IgG capacity after six 4 h cycles in experiment [2] is 52.5 mg/mL. Also, the Initial IgG capacity Qb10 in [3] worked out at 56.9 mg/mL. For the same substance, the Remaining IgG capacity after six 4 h cycles (%) in [4] amounted to 92%.

In the case of “Zvar(N11K, H18K, S33K, D37E, A42R, N43A, L44I, K50R, L51Y)4 (designed binder)”, the Capacity retention relative to ref. after 4 h cycles in [1] is 1.42. Also, the Remaining IgG capacity after six 4 h cycles (%) in experiment [5] worked out at 92%. The Remaining IgG capacity after six 4 h cycles in [6] amounted to 52 mg/mL. In experiment [7], this substance gave an Initial IgG capacity Qb10 of 56.3 mg/mL.

For the substance “Zvar(H18K, S33K, D37E, A42R, N43A, L44I, K50R, L51Y)1 (designed binder)”, in [8], the Capacity relative to reference was found to be 1.04. The substance further returned a Capacity after 96-100 cycles in experiment [9] of 48%.
